# Values quoted from earlier work, collected in PMC12990809.
# Columns and labels:
# Test in all cases: pulldown
# Details in all cases: 20 nM protein, 1.5 uM RNA pool; 20 mM HEPES pH 7.8, 70 mM KCl, 10 mM NaCl, 10% glycerol, 2 mM DTT, 0.1 ug/uL BSA; 30 min, 4 C (protocol of this paper; not …); cited from earlier work
# rbm4.3 (Danio rerio) = target: T1, rbm4.3 (Danio rerio) (UniProt A0ACM8Q3W8)
# T1 sequence: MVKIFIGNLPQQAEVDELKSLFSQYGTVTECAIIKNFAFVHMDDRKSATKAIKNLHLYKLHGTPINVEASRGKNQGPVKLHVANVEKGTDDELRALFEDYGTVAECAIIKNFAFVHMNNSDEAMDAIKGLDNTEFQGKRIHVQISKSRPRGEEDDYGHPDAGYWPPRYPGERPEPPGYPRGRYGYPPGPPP
# [1] = target: T2, PFF0320c (Plasmodium falciparum) (UniProt C6KSR3)
# T2 sequence: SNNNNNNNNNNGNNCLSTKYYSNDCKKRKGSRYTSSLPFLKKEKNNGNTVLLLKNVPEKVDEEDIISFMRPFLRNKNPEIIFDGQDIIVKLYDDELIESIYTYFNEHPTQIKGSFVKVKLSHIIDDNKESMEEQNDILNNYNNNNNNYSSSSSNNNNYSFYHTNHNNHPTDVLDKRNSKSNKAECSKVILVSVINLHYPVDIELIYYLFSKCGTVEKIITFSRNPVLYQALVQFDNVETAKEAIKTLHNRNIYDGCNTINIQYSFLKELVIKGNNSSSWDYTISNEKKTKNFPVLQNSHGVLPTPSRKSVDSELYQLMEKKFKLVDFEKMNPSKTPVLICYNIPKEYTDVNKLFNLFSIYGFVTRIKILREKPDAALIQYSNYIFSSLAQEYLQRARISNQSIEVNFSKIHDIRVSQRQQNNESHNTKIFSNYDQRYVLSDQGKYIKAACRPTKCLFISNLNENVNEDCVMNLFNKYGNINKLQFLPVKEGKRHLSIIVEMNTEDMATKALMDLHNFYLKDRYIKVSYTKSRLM
# [2] = target: hnrnpabb (Tetraodon nigroviridis) (UniProt Q4SDS6)
# hnrnpabb (Tetraodon nigroviridis), sequence (Q4SDS6 entry or part of it): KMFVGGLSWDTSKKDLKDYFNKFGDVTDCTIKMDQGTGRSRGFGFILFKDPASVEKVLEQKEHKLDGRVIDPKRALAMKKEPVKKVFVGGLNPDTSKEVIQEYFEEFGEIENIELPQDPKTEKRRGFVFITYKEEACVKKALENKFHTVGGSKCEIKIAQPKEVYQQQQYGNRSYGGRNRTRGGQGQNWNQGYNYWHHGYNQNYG
# [3] = target: T3, Tb11.01.7680 (Trypanosoma brucei) (UniProt Q381I4)
# T3 sequence: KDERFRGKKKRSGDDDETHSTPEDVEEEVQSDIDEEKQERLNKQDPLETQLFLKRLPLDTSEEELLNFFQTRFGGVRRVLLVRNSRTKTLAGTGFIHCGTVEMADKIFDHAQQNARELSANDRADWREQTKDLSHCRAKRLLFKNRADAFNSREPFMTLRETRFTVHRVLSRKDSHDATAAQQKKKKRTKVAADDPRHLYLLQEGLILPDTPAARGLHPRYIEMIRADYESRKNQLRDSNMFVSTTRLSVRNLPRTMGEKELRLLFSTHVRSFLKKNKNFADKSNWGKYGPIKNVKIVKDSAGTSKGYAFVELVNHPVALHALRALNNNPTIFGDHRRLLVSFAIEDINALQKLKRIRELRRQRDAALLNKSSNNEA
# [4] = target: T4, MAL13P1.35 (Plasmodium falciparum) (UniProt C0H5A4)
# T4 sequence: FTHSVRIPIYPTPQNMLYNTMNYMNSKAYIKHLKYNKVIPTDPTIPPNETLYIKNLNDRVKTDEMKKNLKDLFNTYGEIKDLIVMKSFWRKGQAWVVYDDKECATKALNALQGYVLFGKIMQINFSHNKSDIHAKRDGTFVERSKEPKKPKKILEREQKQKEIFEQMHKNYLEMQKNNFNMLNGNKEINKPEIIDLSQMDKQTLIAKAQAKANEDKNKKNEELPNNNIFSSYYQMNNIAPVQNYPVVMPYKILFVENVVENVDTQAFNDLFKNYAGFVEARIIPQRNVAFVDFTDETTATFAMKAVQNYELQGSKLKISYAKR
# [5] = target: T5, PF10_0214 (Plasmodium falciparum) (UniProt Q8IJI3)
# T5 sequence: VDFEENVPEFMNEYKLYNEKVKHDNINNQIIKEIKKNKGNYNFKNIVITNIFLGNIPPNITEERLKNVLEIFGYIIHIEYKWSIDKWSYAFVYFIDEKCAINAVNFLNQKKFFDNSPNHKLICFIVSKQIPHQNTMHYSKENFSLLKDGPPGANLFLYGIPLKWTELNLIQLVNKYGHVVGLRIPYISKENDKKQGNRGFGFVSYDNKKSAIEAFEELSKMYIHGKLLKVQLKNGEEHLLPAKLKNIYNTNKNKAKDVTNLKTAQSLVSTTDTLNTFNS
# [6] = target: T6, Smp_067420 (Schistosoma mansoni) (UniProt G4LZ80)
# T6 sequence: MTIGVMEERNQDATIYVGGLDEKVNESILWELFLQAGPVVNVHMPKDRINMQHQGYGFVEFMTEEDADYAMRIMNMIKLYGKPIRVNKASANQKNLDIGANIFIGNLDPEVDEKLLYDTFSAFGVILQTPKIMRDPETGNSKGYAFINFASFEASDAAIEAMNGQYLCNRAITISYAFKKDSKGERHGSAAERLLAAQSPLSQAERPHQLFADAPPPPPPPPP
# Pcbp1 (Mus musculus) = Pcbp1 (Mus musculus) (UniProt P60335)
# Pcbp1 (Mus musculus), sequence (P60335 whole entry): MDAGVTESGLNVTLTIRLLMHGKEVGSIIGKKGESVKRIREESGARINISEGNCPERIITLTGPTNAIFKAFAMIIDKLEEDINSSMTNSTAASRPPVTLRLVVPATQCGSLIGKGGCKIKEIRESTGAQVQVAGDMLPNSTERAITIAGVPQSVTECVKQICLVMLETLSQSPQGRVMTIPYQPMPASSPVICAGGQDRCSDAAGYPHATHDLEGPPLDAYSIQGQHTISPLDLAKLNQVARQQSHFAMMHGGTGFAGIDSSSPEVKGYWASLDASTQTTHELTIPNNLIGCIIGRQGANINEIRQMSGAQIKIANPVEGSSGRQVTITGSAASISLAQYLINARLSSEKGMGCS
# pcbp2 (Danio rerio) = pcbp2 (Danio rerio) (UniProt A0A8M1PCB6)
# pcbp2 (Danio rerio), sequence (A0A8M1PCB6 entry or part of it): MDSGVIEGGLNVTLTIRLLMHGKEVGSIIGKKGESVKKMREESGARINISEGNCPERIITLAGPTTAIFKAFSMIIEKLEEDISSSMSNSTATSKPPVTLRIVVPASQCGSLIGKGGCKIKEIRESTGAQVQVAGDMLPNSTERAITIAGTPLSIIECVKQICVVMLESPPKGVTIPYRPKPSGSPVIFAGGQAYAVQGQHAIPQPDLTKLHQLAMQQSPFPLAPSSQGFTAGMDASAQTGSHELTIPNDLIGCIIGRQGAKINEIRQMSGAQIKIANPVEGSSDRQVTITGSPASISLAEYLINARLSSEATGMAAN
# [7] = target: T7, Tb927.3.3670 (Trypanosoma brucei) (UniProt Q57WA3)
# T7 sequence: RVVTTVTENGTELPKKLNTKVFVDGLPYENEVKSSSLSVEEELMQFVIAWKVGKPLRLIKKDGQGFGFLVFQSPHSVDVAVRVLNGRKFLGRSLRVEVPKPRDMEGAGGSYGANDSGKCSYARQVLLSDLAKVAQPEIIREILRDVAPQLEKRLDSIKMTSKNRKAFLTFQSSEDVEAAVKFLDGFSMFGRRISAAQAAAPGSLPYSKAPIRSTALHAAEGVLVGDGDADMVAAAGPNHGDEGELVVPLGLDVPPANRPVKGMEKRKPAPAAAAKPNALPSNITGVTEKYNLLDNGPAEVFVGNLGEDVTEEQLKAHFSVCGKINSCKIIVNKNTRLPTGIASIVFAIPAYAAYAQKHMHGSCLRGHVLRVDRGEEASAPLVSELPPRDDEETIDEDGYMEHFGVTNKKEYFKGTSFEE
# Rbm45 (Mus musculus) = target: T8, Rbm45 (Mus musculus) (UniProt Q8BHN5)
# T8 sequence: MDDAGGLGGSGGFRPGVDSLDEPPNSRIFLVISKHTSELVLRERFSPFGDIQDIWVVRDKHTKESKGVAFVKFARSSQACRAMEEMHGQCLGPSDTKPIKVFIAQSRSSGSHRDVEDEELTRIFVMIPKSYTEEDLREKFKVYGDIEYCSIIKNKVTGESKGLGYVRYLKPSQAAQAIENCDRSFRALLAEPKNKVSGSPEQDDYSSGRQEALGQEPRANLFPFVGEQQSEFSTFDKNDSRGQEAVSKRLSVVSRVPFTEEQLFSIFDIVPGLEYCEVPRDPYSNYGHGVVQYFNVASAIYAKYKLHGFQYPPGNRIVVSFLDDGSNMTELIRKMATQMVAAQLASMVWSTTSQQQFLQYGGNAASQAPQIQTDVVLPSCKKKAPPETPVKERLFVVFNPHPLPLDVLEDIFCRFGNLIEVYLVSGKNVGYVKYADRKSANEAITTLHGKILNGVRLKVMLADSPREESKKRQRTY
# [8] = target: T9, estExt_gwp_gw1.C_700168 (Physcomitrella patens) (UniProt A0A2K1JQP1)
# T9 sequence: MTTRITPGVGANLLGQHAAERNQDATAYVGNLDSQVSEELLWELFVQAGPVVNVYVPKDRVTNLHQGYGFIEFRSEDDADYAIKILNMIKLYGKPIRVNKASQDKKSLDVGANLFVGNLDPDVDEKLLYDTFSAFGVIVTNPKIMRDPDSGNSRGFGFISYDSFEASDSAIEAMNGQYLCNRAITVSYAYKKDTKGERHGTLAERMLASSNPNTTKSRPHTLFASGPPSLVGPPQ
# [9] = target: T10, NCU02404 (Neurospora crassa) (UniProt V5ILJ4)
# T10 sequence: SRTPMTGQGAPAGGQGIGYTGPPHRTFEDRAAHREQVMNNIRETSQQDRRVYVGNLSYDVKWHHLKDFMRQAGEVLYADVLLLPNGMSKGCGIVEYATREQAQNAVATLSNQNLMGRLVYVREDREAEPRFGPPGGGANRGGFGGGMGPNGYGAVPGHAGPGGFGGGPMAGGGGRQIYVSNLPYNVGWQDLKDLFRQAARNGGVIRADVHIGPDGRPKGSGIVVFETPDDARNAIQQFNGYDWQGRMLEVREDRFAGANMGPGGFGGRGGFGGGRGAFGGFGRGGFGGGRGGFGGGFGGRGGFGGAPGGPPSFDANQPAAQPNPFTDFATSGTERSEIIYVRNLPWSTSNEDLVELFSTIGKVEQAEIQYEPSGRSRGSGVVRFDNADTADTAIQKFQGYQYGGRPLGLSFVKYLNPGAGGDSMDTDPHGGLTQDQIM
# [10] = target: T11, fox-1 ins385_GNEYIMYHQAKQQELP (Caenorhabditis elegans) (UniProt Q10572)
# T11 sequence: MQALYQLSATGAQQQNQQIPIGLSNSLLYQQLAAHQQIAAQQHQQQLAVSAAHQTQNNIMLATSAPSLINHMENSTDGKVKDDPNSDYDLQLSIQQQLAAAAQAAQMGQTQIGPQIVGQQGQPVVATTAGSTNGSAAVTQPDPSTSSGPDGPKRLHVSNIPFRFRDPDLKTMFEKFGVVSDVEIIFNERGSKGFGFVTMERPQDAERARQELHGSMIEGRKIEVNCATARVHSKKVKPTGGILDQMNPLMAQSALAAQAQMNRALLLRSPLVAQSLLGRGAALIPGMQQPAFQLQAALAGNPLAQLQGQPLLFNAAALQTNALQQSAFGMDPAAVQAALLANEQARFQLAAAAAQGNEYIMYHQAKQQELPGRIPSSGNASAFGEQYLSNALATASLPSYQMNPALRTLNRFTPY
# [11] = target: T12, Tb11.03.0170 (Trypanosoma brucei) (UniProt Q387F5)
# T12 sequence: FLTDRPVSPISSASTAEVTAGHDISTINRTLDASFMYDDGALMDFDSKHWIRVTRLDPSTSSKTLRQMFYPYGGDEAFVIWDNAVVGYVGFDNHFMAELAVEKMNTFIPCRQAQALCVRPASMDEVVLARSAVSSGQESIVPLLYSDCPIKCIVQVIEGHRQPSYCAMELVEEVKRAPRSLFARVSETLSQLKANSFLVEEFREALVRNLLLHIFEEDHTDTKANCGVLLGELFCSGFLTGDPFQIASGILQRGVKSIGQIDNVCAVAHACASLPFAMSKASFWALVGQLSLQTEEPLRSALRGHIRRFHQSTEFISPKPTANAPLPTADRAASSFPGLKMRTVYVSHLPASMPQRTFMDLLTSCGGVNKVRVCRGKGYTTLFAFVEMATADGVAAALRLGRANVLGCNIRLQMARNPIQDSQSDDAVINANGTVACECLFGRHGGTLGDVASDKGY
# [12] = target: T13, Phyra93644 G140S (Phytophthora ramorum) (UniProt H3HB24)
# T13 sequence: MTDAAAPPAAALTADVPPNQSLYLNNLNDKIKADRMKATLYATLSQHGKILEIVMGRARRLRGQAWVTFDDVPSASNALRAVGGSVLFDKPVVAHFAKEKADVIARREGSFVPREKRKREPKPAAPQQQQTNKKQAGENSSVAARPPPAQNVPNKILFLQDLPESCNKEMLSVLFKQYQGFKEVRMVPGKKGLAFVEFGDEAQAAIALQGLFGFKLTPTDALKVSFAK
# [13] = target: T14, TVAG_514790 (Trichomonas vaginalis) (UniProt A2GMP0)
# T14 sequence: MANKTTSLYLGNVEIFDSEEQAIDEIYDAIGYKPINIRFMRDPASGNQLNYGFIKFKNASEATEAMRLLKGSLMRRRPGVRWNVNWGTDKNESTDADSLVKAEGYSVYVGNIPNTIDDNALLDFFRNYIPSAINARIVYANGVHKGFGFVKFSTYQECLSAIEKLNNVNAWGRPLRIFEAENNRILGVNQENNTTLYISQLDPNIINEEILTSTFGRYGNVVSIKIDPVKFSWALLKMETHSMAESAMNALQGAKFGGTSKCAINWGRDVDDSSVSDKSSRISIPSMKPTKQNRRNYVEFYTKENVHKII
sequence,measurement,setting,value
ACGACG [RNAcompete motif RNCMPT00248],binding signal (z-score (mean of top ten 7-mers)),rbm4.3 (Danio rerio),10.2
ACUAAAC [RNAcompete motif RNCMPT00235],binding signal (z-score (mean of top ten 7-mers)),[1],8.17
AGAUAGA [RNAcompete motif RNCMPT00245],binding signal (z-score (mean of top ten 7-mers)),[2],8.14
AGUAGAU [RNAcompete motif RNCMPT00252],binding signal (z-score (mean of top ten 7-mers)),[3],7.34
AUUACAC [RNAcompete motif RNCMPT00234],binding signal (z-score (mean of top ten 7-mers)),[4],15.8
AUUCCGA [RNAcompete motif RNCMPT00240],binding signal (z-score (mean of top ten 7-mers)),[5],11.3
AUUUUUU [RNAcompete motif RNCMPT00232],binding signal (z-score (mean of top ten 7-mers)),[6],8.88
CUUUCCC [RNAcompete motif RNCMPT00239],binding signal (z-score (mean of top ten 7-mers)),Pcbp1 (Mus musculus),6.21
CUUUCCC [RNAcompete motif RNCMPT00246],binding signal (z-score (mean of top ten 7-mers)),pcbp2 (Danio rerio),6.92
GAAGGA [RNAcompete motif RNCMPT00230],binding signal (z-score (mean of top ten 7-mers)),[7],6.23
GACGAC [RNAcompete motif RNCMPT00241],binding signal (z-score (mean of top ten 7-mers)),Rbm45 (Mus musculus),10.6
GAUGGAGU [RNAcompete motif RNCMPT00237],binding signal (z-score (mean of top ten 7-mers)),[8],9.26
GGAGGA [RNAcompete motif RNCMPT00238],binding signal (z-score (mean of top ten 7-mers)),[9],6.21
UGCAUG [RNAcompete motif RNCMPT00017],binding signal (z-score (mean of top ten 7-mers)),[10],24.8
UUCACAC [RNAcompete motif RNCMPT00251],binding signal (z-score (mean of top ten 7-mers)),[11],9.19
UUGCAC [RNAcompete motif RNCMPT00249],binding signal (z-score (mean of top ten 7-mers)),[12],12
UUUUUU [RNAcompete motif RNCMPT00236],binding signal (z-score (mean of top ten 7-mers)),[13],10.3
